Holding throughout (assay): cell-based or functional assay
Assay [1] has as its target HA of A/Wilson Smith N/33 (H1N1) (influenza A virus, UniProt P03454 18-565).
Assay [2] concerns the target HA of B/Ohio/1/2005 (victoria) (influenza B virus).
The target of assay [3] is HA of ca B/Beijing/243/97 (victoria) (influenza B virus).
Assay [4] deals with HA of A/Hong Kong/8/68 (H3N2) (influenza A virus).
Assay [5] concerns the target HA of A/Shan dong/9/93 (H3N2) (influenza A virus).
The target of assay [6] is HA of A/Solomon Island/3/2006 (H1N1) (influenza A virus).
The target of assay [7] is HA of ca A/Panama/2007/99 (H3N2) (influenza A virus).
Assay [8] deals with HA of B/Florida/4/2006 (yamagata) (influenza B virus).
Assay [9] deals with HA of B/Hong Kong/330/2001 (victoria) (influenza B virus).
The target in assay [10] is HA of B/Sichuan/379/99 (yamagata) (influenza B virus).
Assay [11] deals with HA of B/Yamanashi/166/98 (yamagata) (influenza B virus).
Assay [12] addresses HA of A/Beijing/262/95 (H1N1) (influenza A virus).
Assay [13] concerns the target HA of B/Malaysia/2506/2004 (victoria) (influenza B virus).
For assay [14], the target named is HA of A/California/07/2009 (H1N1) (influenza A virus).
Assay [15] has as its target HA of A/Victoria/3/75 (H3N2) (influenza A virus).

Chain of HA of A/Wilson Smith N/33 (H1N1) (P03454 18-565 limits assumed): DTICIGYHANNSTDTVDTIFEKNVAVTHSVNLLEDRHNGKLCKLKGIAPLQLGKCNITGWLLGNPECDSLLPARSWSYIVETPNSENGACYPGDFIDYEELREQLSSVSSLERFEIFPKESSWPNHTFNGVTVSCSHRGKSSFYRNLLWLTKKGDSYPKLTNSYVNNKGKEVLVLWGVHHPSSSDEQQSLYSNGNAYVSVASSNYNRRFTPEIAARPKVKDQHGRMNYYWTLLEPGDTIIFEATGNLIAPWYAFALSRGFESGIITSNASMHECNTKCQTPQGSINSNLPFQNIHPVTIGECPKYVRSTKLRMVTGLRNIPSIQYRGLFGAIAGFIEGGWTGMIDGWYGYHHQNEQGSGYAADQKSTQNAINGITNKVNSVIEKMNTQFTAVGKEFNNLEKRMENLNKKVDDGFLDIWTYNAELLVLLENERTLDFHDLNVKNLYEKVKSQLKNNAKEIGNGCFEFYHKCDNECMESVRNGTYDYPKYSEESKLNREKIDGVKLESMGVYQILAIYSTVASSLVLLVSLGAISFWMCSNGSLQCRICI

B1: FY1/94 BiS4 100/44 (bispecific antibody)
light: DIQMTQSPSSLSASVGDRVTITCRTSQSLSSYLHWYQQKPGKAPKLLIYAASSLQSGVPSRFSGSGSGTDFTLTISSLQPEDFATYYCQQSRTFGQGTKVEIKRTVAAPSVFIFPPSDEQLKSGTASVVCLLNNFYPREAKVQWKVDNALQSGNSQESVTEQDSKDSTYSLSSTLTLSKADYEKHKVYACEVTHQGLSSPVTKSFNRGEC
heavy: not shown
In the case of B1, the “Neutralization (IC50)” value in [1] came out at 7.3 nM; in assay [2], 3 nM; in assay [3], 1.8 nM; in assay [4], 9.1 nM; in assay [5] it was 37.9 nM; in [6] it was 2.5 nM. In addition, the “Neutralization (IC50)” value in assay [7] was 38.2 nM; in assay [8], 1.8 nM; in assay [9] it was 4 nM; in [10] it was 5.2 nM; in assay [11], 2.3 nM; in assay [12], 13.1 nM. In addition, the entries for the “Neutralization (IC50)” value in assay [13], in assay [14] and in assay [15] were 1.8 nM, 6.2 nM and 7.2 nM, respectively.

B2: FY1/39 BiS3 100/44 (bispecific antibody)
light: B1 light
heavy: not shown
As to B2, the “Neutralization (IC50)” value came to 10.6 nM in assay [1]; 8.1 nM in assay [2]; 21.5 nM in assay [3]; 5.8 nM in assay [4]; 7.8 nM in [5]; 2.5 nM in assay [6]. The “Neutralization (IC50)” value is 149 nM in assay [7]; 5.9 nM in assay [8]; 112 nM in [9]; 12.3 nM in assay [10]; 0.7 nM in assay [11]; 20.2 nM in [12]. The “Neutralization (IC50)” value in assay [13] turned out to be 43.7 nM; in [14], 9.9 nM; in assay [15], 45.2 nM.

B3: FY1/39 BiS2 100/44 (bispecific antibody)
light: B1 light
heavy: not shown
Consider B3, for which the “Neutralization (IC50)” value in [1] worked out at 17.7 nM; in [2], 2.8 nM; in [3], 6.1 nM; in assay [4] it was 10.2 nM; in assay [5], 72.1 nM; in [6] it was 9.9 nM. The “Neutralization (IC50)” value was above 1000 nM in [7]; 1.7 nM in assay [8]; 7 nM in assay [9]; 2.1 nM in assay [10]; 0.4 nM in assay [11]; 61.3 nM in assay [12]. Also, the “Neutralization (IC50)” value in assay [13] is 5.6 nM; in assay [14] it was 18.7 nM; in [15] it was above 1000 nM.

B4: FY1/39 BiS1 100/44 (bispecific antibody)
light: DIQMTQSPSSVSASVGDRVTITCRASQDISTWLAWYQQKPGKAPKLLIYAASSLQSGVPSRFSGSGSGTDFTLTISSLQPEDFATYFCQQANSFPPTFGCGTKLEIKGGGGSGGGGSGGGGSGGGGSEVQLVVSGGGLVKPGGSLRLSCAASGLSFLNAWMSWVRQAPGKCLEWVGRIKSNTDGGTTDYAAPVKGRFSISRDDSKNMLFLHMSSLRTEDTAVYYCATDGPYSDDFRSGYAARYRYFGMDVWGQGTTVTVSSGGGGSGGGGSDIQMTQSPSSLSASVGDRVTITCRTSQSLSSYLHWYQQKPGKAPKLLIYAASSLQSGVPSRFSGSGSGTDFTLTISSLQPEDFATYYCQQSRTFGQGTKVEIKRTVAAPSVFIFPPSDEQLKSGTASVVCLLNNFYPREAKVQWKVDNALQSGNSQESVTEQDSKDSTYSLSSTLTLSKADYEKHKVYACEVTHQGLSSPVTKSFNRGEC
heavy: not shown
In the case of B4, the “Neutralization (IC50)” value in assay [1] was 28.2 nM; in [2], 2.6 nM; in assay [3], 3.6 nM; in assay [4] it was 31.4 nM; in [5], above 1000 nM; in [6] it was 14.7 nM. Further, the “Neutralization (IC50)” value in [7] is above 1000 nM; in assay [8] it was 1.1 nM; in assay [9], 5.3 nM; in assay [10], 1.5 nM; in assay [11] it was 0.1 nM; in [12], 62.2 nM. In addition, the entries for the “Neutralization (IC50)” value in [13], in assay [14] and in assay [15] were 4.1 nM, 32.5 nM and 337 nM, respectively.
